One block for each binder: values may come before it.
Legend:
[1] = molecular target: T1, cynomolgus IL-36α, truncated (cynomolgus macaque (Macaca fascicularis), UniProt Q9UHA7 14-158 (human entry), limits assumed); assay: SPR, Biacore, 1:1 Langmuir fit
T1 construct: Untagged after removal of the His-SUMO tag; also called cynomolgus IL-36 alpha; cyIL-36alpha
T1 chain: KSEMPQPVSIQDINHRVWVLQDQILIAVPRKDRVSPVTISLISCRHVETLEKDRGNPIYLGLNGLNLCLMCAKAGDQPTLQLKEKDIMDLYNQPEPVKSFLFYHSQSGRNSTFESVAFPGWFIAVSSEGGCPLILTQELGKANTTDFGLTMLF
Method: (§1) The humanized antibodies obtained in Example 6 were tested for their binding to recombinant human or cynomolgus macaque IL36a and IL-36γ in Biacore assays. The association time was set to 60 seconds, and the final dissociation time was set to 600 seconds. Equilibrium dissociation constant KD (kd/ka) of exemplary antibodies was determined using a 1:1 Langmuir fit model (see Tables 17-18 below).

human IL-36γ, truncated [2] = molecular target: T2, human IL-36γ, truncated (human, UniProt Q9NZH8 18-169); assay: SPR, Biacore, 1:1 Langmuir fit
T2 construct: Bought from R&D Systems (cat 6835-IL); also called human IL-36 gamma; hIL-36gamma
T2 sequence: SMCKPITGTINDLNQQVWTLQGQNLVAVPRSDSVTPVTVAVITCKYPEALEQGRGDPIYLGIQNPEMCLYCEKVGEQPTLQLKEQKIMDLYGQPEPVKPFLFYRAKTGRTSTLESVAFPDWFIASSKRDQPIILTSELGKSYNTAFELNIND
Method: as §1

[3] = molecular target: T3, human IL-36α(R12), truncated (human, UniProt Q9UHA7 6-158); assay: SPR, Biacore, 1:1 Langmuir fit
T3 construct: Untagged after removal of the His-SUMO tag; also called hIL-36alpha
T3 chain: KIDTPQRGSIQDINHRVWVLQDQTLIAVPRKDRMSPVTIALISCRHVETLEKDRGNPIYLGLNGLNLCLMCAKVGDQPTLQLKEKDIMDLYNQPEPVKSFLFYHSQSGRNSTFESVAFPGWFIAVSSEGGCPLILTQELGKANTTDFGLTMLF
Method: as §1

[4] = molecular target: T4, cynomolgus IL-36γ, truncated (cynomolgus macaque (Macaca fascicularis), UniProt Q9NZH8 18-167 (human entry), limits assumed); assay: SPR, Biacore, 1:1 Langmuir fit
T4 construct: Untagged after removal of the His-SUMO tag; also called cynomolgus IL-36 gamma; cyIL-36gamma
T4 chain: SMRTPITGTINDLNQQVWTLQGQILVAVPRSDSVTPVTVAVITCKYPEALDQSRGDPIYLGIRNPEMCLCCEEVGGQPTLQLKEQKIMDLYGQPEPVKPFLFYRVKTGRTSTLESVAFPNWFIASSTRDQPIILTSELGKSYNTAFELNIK
Method: as §1

[5] = molecular target: T1, cynomolgus IL-36α, truncated; assay: SPR, Biacore, 1:1 Langmuir fit; heads of c3 and c4 printed swapped
Method: as §1

human IL-36γ, truncated [6] = molecular target: T2, human IL-36γ, truncated; assay: as above
Method: as §1

[7] = molecular target: T3, human IL-36α(R12), truncated; assay: as above
Method: as §1

[8] = molecular target: T4, cynomolgus IL-36γ, truncated; assay: as above
Method: as §1

[9] = molecular target: T1, cynomolgus IL-36α, truncated; assay: cell-based or functional assay
[10] = molecular target: T3, human IL-36α(R12), truncated; assay: cell-based or functional assay
[11] = molecular target: T5, human IL-36α(Q12), truncated (human, UniProt Q9UHA7 6-158); assay: SPR, Biacore T200, antibody on chip, IL-36 as analyte, 1:1 Langmuir fit
T5 construct: Untagged after removal of the His-SUMO tag
T5 sequence: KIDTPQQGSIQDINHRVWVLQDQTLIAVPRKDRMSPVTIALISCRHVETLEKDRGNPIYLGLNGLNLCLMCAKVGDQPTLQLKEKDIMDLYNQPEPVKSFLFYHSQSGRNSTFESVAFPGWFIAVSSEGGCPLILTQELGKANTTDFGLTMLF
Method: (§2) Antibodies were further tested for their binding to recombinant human or cynomolgus IL36α, IL-36γ in Biacore assays. In order to kinetically analyze the binding activity of the IL-36α and IL-36γ dual antagonist antibodies, the binding activity to human and cynomolgus IL-36α and IL-36γ was measured by surface plasmon resonance method (SPR). All of the following manipulations were carried out using a Biacore T200 (GE Healthcare Life Sciences, Pittsburgh, Pa.).
(§3) To determine antibody affinity to human and cynomolgus IL36, recombinant antibodies were immobilized on a CM5 sensor chip (cat# BR100012, GE Healthcare Life Sciences, Pittsburgh, Pa.) by an amine coupling chemistry. In particular, the kinetic assay was carried out by immobilizing on the chip approximately 2000 RU of recombinant antibody. Thereafter, recombinant human or cynomolgus IL36 proteins, serially diluted from a high concentration, were allowed to run at a flow rate of 30 μL/min onto the chip for 420 seconds. The dissociation time was 3600 seconds and the binding curves were measured at 25° C. Regeneration was performed with 10 mM glycine pH 1.5 for 30s. Alternatively, the analytes were injected with increasing concentrations in a single cycle, the surface not being regenerated between injections, using a method referred to as “single cycle kinetics.” In particular, either anti-human or anti-mouse Fc specific antibodies were immobilized on a CM5 sensor chip (cat# BR100012, GE Healthcare Life Sciences, Pittsburgh, Pa.) by an amine coupling chemistry. Thereafter, IL-36α and IL-36γ dual antagonist mouse/human chimeric or mouse antibodies were captured at approximately 200 RUs, followed by injections of increasing concentrations of recombinant human and cynomolgus IL36 proteins. The association time was 300 seconds, and the final dissociation time was 1200 seconds. At the end of the analyte injections, the surface was regenerated with either 3M MgCl₂ (anti-human Fc capture antibody) for 30 s or 10 mM glycine-HCl pH 1.7 for 180 s (anti-mouse IgG capture antibody).
(§4) The raw data were double referenced by subtraction of the signals from a reference flow cell without immobilized ligand and a buffer blank. The sensorgram corresponding to each concentration was obtained.

human IL-36γ, truncated [12] = molecular target: T2, human IL-36γ, truncated; assay: cell-based or functional assay
[13] = molecular target: T4, cynomolgus IL-36γ, truncated; assay: cell-based or functional assay
human IL-36γ, truncated [14] = molecular target: T2, human IL-36γ, truncated; assay: cell-based or functional assay; remark: listed apart in the source
[15] = molecular target: T3, human IL-36α(R12), truncated; assay: cell-based or functional assay
human IL-36γ, truncated [16] = molecular target: T2, human IL-36γ, truncated; assay: SPR, Biacore T200, antibody on chip, IL-36 as analyte, 1:1 Langmuir fit
Method: as §2, §3, §4

[17] = molecular target: T3, human IL-36α(R12), truncated; assay: as above
Method: as §2, §3, §4

IC50 of IL-8 secretion, HaCaT, 10 nM cynomolgus IL-36α, FIG. 2A [9]: 19.3 nM | IC50 of IL-8 secretion, HaCaT, 10 nM human IL-36α, FIG. 1B [10]: 39.2 nM | Kd [11]: 7.01 nM | koff [11]: 0.00868 s⁻¹ | kon [11]: 1.24e+06 M⁻¹ s⁻¹ | IC50 of IL-8 secretion, HaCaT, 10 nM human IL-36γ, FIG. 1E (human IL-36γ, truncated [12]): 19.4 nM | IC50 of IL-8 secretion, HaCaT, 10 nM cynomolgus IL-36γ, FIG. 2C [13]: 44.4 nM
B3: m/h 144J171G (antibody, human IgG1, lambda, V domains shown)
VH: EVQLQQSGAELVEPGASVKLSCTASGFNIKDTYINWVKQRPEQGLEWIGRIDPANGYTRYAPKFQGKATITSDTSSNTAYLQLSSLTSEDAAVYSCSTLNYYGSSFFFDFWGQGTTLTVSS
VL: QAVVTQESALTTSPGETVTLTCRSSTGAVTTSNYANWVQEKPDHLFTGLIGGTNNRAPGVPARFSGSLIGDKAALTITGAQTEDEAIYFCALWYSNHWVFGGGTKLTVLG
notes: Mouse VH/VL joined to human IgG1 constant and human Ig lambda (IGLC2) constant; also called chimeric mouse/human 144J171G

Kd [11]: 1.86 nM | koff [11]: 0.0227 s⁻¹ | kon [11]: 1.22e+07 M⁻¹ s⁻¹ | IC50 of IL-8 secretion, primary human monocytes, 40 nM human IL-36α, FIG. 5B [15]: 27.5 nM
B7: m/h 144L124B (antibody, human IgG1, lambda, V domains shown)
VH: EVQLQQSGAELVKPGASVKLSCTASGFNIKDTYIYWVKQRPEQGLEWIGRIDPANGYTRYDPKFQGKATMTADTSSNTAYLQLSSLTSEDTAVYYCARYEYYDSSFYFDYWGQGTTLTVSS
VL: QAVVTQESALTTSPGETVTLTCRSSTGAVTTSNYANWVQEKPDHLFTGLIGGTNNRAPGVPARFSGSLIGDKAALTITGAQTEDEAIYFCALWYSNHLVFGGGTKLTVLG
notes: Mouse VH/VL joined to human IgG1 constant and human Ig lambda (IGLC2) constant; also called chimeric mouse/human 144L124B

Second part, the binder before the results:

B1: 144D464A LV10re HV10b (antibody, V domains shown)
VH: QVQLVQSGAEVKKPGASVKVSCKASGFNIKDTYIHWVRQAPGQGLEWIGRIDPAIGTTRYDPKFQGRATITTDTSTSTVYLEFSSLRSEDTAVYYCARLHYFGNNFFFDYWGQGTLVTVSS
VL: QAVVTQEPSLTVSPGGTVTLTCRSSSGAVTTSNYANWVQEKPGQLFAGLIGGTNDRAPGVPARFSGSLLGGKAALTLSGAQPEDEAIYFCALWFSNHWVFGGGTKLTVL
notes: Humanized
Kd [1]: 1.12 nM | Kd (human IL-36γ, truncated [2]): 1.2 nM | Kd [3]: 1.87 nM | Kd [4]: 1.02 nM | koff [5]: 0.000415 s⁻¹ | kon [5]: 372000 M⁻¹ s⁻¹ | koff (human IL-36γ, truncated [6]): 0.000425 s⁻¹ | kon (human IL-36γ, truncated [6]): 353000 M⁻¹ s⁻¹ | koff [7]: 0.000429 s⁻¹ | kon [7]: 229000 M⁻¹ s⁻¹ | koff [8]: 0.00047 s⁻¹ | kon [8]: 460000 M⁻¹ s⁻¹

B2: 144D464A LV11re HV10b (antibody, V domains shown)
VH: QVQLVQSGAEVKKPGASVKVSCKASGFNIKDTYIHWVRQAPGQGLEWIGRIDPAIGTTRYDPKFQGRATITTDTSTSTVYLEFSSLRSEDTAVYYCARLHYFGNNFFFDYWGQGTLVTVSS
VL: QAVVTQEPSLTVSPGGTVTLTCRSSSGAVTTSNYANWVQEKPGQLFAGLIGGTNDRAPGVPARFSGSLLGGKAALTISGAQPEDEAIYFCALWFSNHWVFGGGTKLTVL
notes: Humanized
Kd [1]: 1.1 nM | Kd (human IL-36γ, truncated [2]): 1.21 nM | Kd [3]: 1.86 nM | Kd [4]: 1.04 nM | koff [5]: 0.000407 s⁻¹ | kon [5]: 369000 M⁻¹ s⁻¹ | koff (human IL-36γ, truncated [6]): 0.00042 s⁻¹ | kon (human IL-36γ, truncated [6]): 346000 M⁻¹ s⁻¹ | koff [7]: 0.000422 s⁻¹ | kon [7]: 226000 M⁻¹ s⁻¹ | koff [8]: 0.000463 s⁻¹ | kon [8]: 446000 M⁻¹ s⁻¹

B4: 144J171G (antibody, V domains shown)
VH: EVQLQQSGAELVEPGASVKLSCTASGFNIKDTYINWVKQRPEQGLEWIGRIDPANGYTRYAPKFQGKATITSDTSSNTAYLQLSSLTSEDAAVYSCSTLNYYGSSFFFDFWGQGTTLTVSS
VL: QAVVTQESALTTSPGETVTLTCRSSTGAVTTSNYANWVQEKPDHLFTGLIGGTNNRAPGVPARFSGSLIGDKAALTITGAQTEDEAIYFCALWYSNHWVFGGGTKLTVL
IC50 of IL-8 secretion, HaCaT, 10 nM cynomolgus IL-36α, FIG. 2A [9]: 16.8 nM | IC50 of IL-8 secretion, HaCaT, 10 nM human IL-36α, FIG. 1B [10]: 27 nM | IC50 of IL-8 secretion, primary human monocytes, 50 nM human IL-36γ, FIG. 5D (human IL-36γ, truncated [14]): 113 nM | IC50 of IL-8 secretion, HaCaT, 10 nM human IL-36γ, FIG. 1E (human IL-36γ, truncated [12]): 19.2 nM | IC50 of IL-8 secretion, HaCaT, 10 nM cynomolgus IL-36γ, FIG. 2C [13]: 82.7 nM

B5: m/h 144L249B (antibody, human IgG1, lambda, V domains shown)
VH: EVQLQQSGAELVKPGASVKLSCTASGFNIKDTYIYWVKQRPEQGLEWIGRIDPAIGTTRYDPKFQGKATLTADTSSNTAFLQLSSLTSEDTAVYYCARYDYSGSSFYFDYWGRGTTLTVSS
VL: QAVVTQESALTTSPGETVTLTCRSSTGAVTTSNYANWVQEKPDHLFTGLIGGTNNRAPGVPARFSGSLIGDKAALTITGAQTEDEAIYFCALWYSNHLVFGGGTKLTVLG
notes: Mouse VH/VL joined to human IgG1 constant and human Ig lambda (IGLC2) constant; also called chimeric mouse/human 144L249B
Kd [11]: 1.02 nM | koff [11]: 0.000825 s⁻¹ | kon [11]: 805000 M⁻¹ s⁻¹ | IC50 of IL-8 secretion, primary human monocytes, 40 nM human IL-36α, FIG. 5B [15]: 38.3 nM

B6: m/h 144D666C (antibody, human IgG1, lambda, V domains shown)
VH: EVQLQQSGAELVKPGASVKLTCTASGFNIKDTYIYWVKQRPAQGLEWIGRIDPANAYTKFDPKFQGKATLTADTSSNTAYLQLSSLTSEDTAVYYCTRFHWYGSSFFFDYWGQGTTLTVSS
VL: QAVVTQESALTTSPGETVTLTCRSSTGAVTTSNYANWVQEKPDHLFTGLIGGTDNRPPGVPARFSGSLIGDKAALTITGAQTEDEAIYFCALWYSNLWVFGGGTKLTVLG
notes: Mouse VH/VL joined to human IgG1 constant and human Ig lambda (IGLC2) constant; also called chimeric mouse/human 144D666C
Kd [11]: 1.75 nM | koff [11]: 0.000834 s⁻¹ | kon [11]: 476000 M⁻¹ s⁻¹ | Kd (human IL-36γ, truncated [16]): 3.06 nM | koff (human IL-36γ, truncated [16]): 0.000342 s⁻¹ | kon (human IL-36γ, truncated [16]): 112000 M⁻¹ s⁻¹ | Kd [17]: 25.1 nM | koff [17]: 0.00219 s⁻¹ | kon [17]: 87300 M⁻¹ s⁻¹ | IC50 of IL-8 secretion, primary human monocytes, 6 nM human IL-36γ, FIG. 5C (human IL-36γ, truncated [14]): 9.02 nM | IC50 of IL-8 secretion, primary human monocytes, 50 nM human IL-36γ, FIG. 5D (human IL-36γ, truncated [14]): 38.1 nM
